B1: MMP1 (parent)
chain: MFFKDRFYMRTNPFYPEVELNFIS
B2: RIT1 (parent)
chain: FHALVREIRRKEKEAVLAMEKKSK

Variants of: B1
Experiment: protein stability index of a GFP-peptide fusion (GPS, HEK-293T) (PSI 1-6); higher = more stable
Details: c terminus: a fixed tail appended
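Also: lentivirally expressed fusions sorted by FACS into six bins by GFP to DsRed ratio, PSI derived from sequencing read proportions per bin multiplied by bin number.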

Variant | protein stability index
E19S | 2.61
E19V | 2.27
E19T | 2.44
E19Y | 3.1
E19W | 1.3
N21D | 3.07
N21C | 3.71
N21K | 1.96
N21H | 2.76
N21T | 3.97
N21L | 3
N21Y | 3.15
N21P | 2.26
N21I | 3.34
N21R | 2.74
N21W | 2.85
N21S | 2.91
N21F | 2.33
N21M | 1.94
N21Q | 3.29
N21A | 2.56
N21V | 2.67
N21G | 4.41
F22W | 2.09

Variant | protein stability index
F22Q | 1.9
F22M | 2.32
F22T | 1.65
F22E | 2.38
F22S | 1.67
F22D | 1.31
F22A | 2.48
F22P | 2.18
F22R | 2.69
F22Y | 2.94
F22N | 2.15
F22L | 3.27
F22C | 2.19
F22I | 3.29
F22H | 2.16
F22G | 2.22
F22V | 2.92
F22K | 1.83
S24G | 2.88
S24C | 2.33
S24E | 2.3
S24V | 3.21
S24P | 3.07
S24L | 4.01

Variant | protein stability index
S24Y | 3.13
S24D | 2.77
S24W | 3.15
S24T | 3.07
S24H | 2.68
S24F | 3.13
S24A | 2.44
S24M | 2.75
S24K | 2.83
S24Q | 2.87
S24N | 2.88
S24R | 2.05
I23L | 3.31
I23W | 3.27
I23A | 2.47
I23E | 2.33
I23N | 1.53
I23S | 2.63
I23K | 2.16
I23D | 2.65
I23V | 3.61
I23C | 2.81
I23G | 1.67
I23M | 3.28

Variant | protein stability index
I23Y | 1.75
I23R | 3.09
I23T | 1.56
I23P | 3.27
I23Q | 2.34
I23H | 1.76
I23F | 2.41
L20V | 2.11
L20N | 2.06
L20H | 2.98
L20W | 3.09
L20K | 3.34
L20E | 3.27
L20Q | 1.36
L20S | 2.35
L20F | 3.19
L20T | 1.85
L20A | 2.27
L20G | 1.59
L20P | 1.99
L20C | 3.04
L20I | 3.27
L20R | 2.25
L20D | 2.28

Variants of: B2
Experiment: as above
Details: c terminus: a fixed tail appended

Variant | protein stability index
A15K | 2.72
A15F | 1.91
A15S | 2.52
A15T | 2.18
A15H | 2.28
A15D | 2.3
A15C | 2.1
A15R | 1.72
A15E | 1.58
A15W | 2.02
A15G | 1.91
E14Y | 2.17
E14T | 1.93
E14S | 1.8
E14N | 1.62
E14W | 2.42
E14F | 2.15
E14G | 1.39
E14A | 2.29
E12I | 3.76
E12H | 2.05
E12F | 1.64
E12N | 2.45
E12G | 2.28

Variant | protein stability index
E12T | 2.42
E12V | 2.48
E12Y | 2.69
K13I | 3.75
K13C | 2.01
K13W | 1.95
K13V | 1.26
K13L | 3.67
K13P | 2.32
K13Y | 1.81
K13Q | 2.58
K13T | 1.77
E20I | 1.94
E20H | 2.12
E20V | 2.52
E20C | 1.52
E20R | 2.59
E20S | 2.53
E20K | 2.08
E20M | 2.08
K22G | 1.83
K22Y | 1.49
K22I | 1.71
K22D | 1.8

Variant | protein stability index
K22V | 1.55
K22W | 1.46
K22T | 2.3
F1Y | 1.92
F1S | 4.14
F1T | 4.16
F1I | 2.93
F1M | 3.69
F1A | 3.95
F1P | 4.61
F1N | 4.67
F1L | 2.86
K11A | 1.47
K11Q | 2.47
K11H | 2.05
K11F | 1.95
K11L | 2.16
K11G | 2
K11R | 1.55
K11T | 2.19
K11P | 2.46
K11W | 2.11
K11M | 2.69
K11Y | 1.64

Variant | protein stability index
K11D | 1.39
K24I | 2.5
K24G | 2.4
K24T | 1.34
K24L | 1.99
K24C | 2.24
K24V | 1.46
K24N | 1.43
K24D | 1.83
K24Y | 1.86
K24F | 1.77
K24P | 1.17
E7A | 2.79
E7P | 2.58
E7S | 2.44
E7H | 1.97
E7D | 1.8
E7Y | 2.04
E7K | 1.36
E7W | 1.59
E7V | 3.23
E7G | 1.62
R10H | 2.18
R10Q | 1.36

Variant | protein stability index
R10T | 2.09
R10Y | 1.82
R10M | 2.19
R10N | 2.34
R10K | 1.33
R10A | 3.88
R10C | 2.7
I8K | 2.31
I8L | 1.65
I8S | 3.08
I8M | 2.32
I8F | 2.34
I8N | 2.77
I8R | 2.32
I8V | 1.78
I8W | 2.35
I8Y | 2.01
R6S | 2.06
R6Q | 1.84
R6D | 1.26
R6I | 2.22
R6E | 1.55
R6P | 1.81
R6L | 1.55

Variant | protein stability index
R6N | 2.47
R6V | 1.75
R9L | 2.12
R9Y | 2.09
R9K | 1.77
R9V | 2.42
R9N | 2.23
R9E | 2.06
R9T | 1.64
R9H | 1.54
R9S | 1.85
R9D | 2.48
R9A | 1.82
R9C | 1.72
R9G | 2.27
L17H | 2.11
L17V | 1.47
L17C | 2.16
L17Y | 2.05
L17S | 1.88
L17E | 2.09
L17Q | 1.88
L17G | 1.7
L17W | 1.7

Variant | protein stability index
L17N | 2.18
V5L | 2.01
V5C | 2.08
V5W | 1.77
V5T | 1.98
V5A | 1.46
V5R | 2.27
V5K | 1.84
V5H | 1.97
V5S | 1.43
V5D | 2.85
V5Q | 2.19
V5G | 2.14
V16S | 2.64
V16W | 2.27
V16H | 2.47
V16D | 1.3
V16M | 1.66
V16N | 1.42
V16F | 2.45
V16Q | 2.22
V16E | 2.59
A18L | 1.66
A18G | 1.71

Variant | protein stability index
A18D | 1.96
A18N | 3.42
A18M | 2.08
A18H | 2.85
A18P | 1.23
A18V | 1.84
H2L | 2.61
H2Q | 2.95
H2C | 2.57
H2N | 3.23
H2P | 3.35
H2R | 3.02
H2S | 1.96
H2Y | 2.72
H2G | 2.83
H2F | 2.73
L4Y | 2.66
L4W | 1.77
L4A | 2.06
L4D | 3.26
L4K | 2.99
L4Q | 2.08
L4N | 2.65
L4M | 3.92

Variant | protein stability index
L4V | 2.24
L4C | 1.92
L4F | 2.35
K21P | 2.17
K21Y | 1.56
K21M | 1.28
K21W | 2.48
K21A | 1.9
K21H | 2.68
K21D | 2.14
K21G | 2.17
K21V | 3.01
K21Q | 2.66
K21L | 2.2
A3E | 1.48
A3Y | 2.13
A3C | 2.07
A3N | 1.87
A3S | 1.42
A3V | 1.69
A3R | 2.05
A3D | 2.19
A3T | 2.28
A3Q | 2.45

Variant | protein stability index
A3F | 2.34
A3P | 1.45
M19T | 1.78
M19V | 1.79
M19L | 3.14
M19D | 2.04
M19P | 1.7
M19F | 2.23
M19H | 1.35
M19A | 1.68
M19N | 2.14
S23D | 1.72
S23Q | 2.22
S23F | 2.09
S23H | 1.67
S23T | 1.67
S23L | 2.59
S23Y | 2.83
S23M | 1.82
S23C | 2.27
S23G | 1.68
S23N | 1.64

Reference: the supplement of paper PMC10567573
